From US20250163146A1 (published 2025) come the findings set out here.

This experiment addresses Nb.d4C4-1. Description: SPR.

B1: mDll4(N-EGF3) (ligand)
chain: GSGIFQLRLQEFVNQRGMLANGQSCEPGCRTFFRICLKHFQATFSEGPCTFGNVSTPVLGTNSFVVRDKNSGSGRNPLQLPFNFTWPGTFSLNIQAWHTPGDDLRPETSPGNSLISQIIIQGSLAVGKIWRTDEQNDTLTRLSYSYRVICSDNYYGESCSRLCKKRDDHFGHYECQPDGSLSCLPGWTGKYCDQPICLSGCHEQNGYCSKPDECICRPGWQGRLCNECIPHNGCRHGTCSIPWQCACDEGWGGLFCDQDLNYCTHHSPCKNGSTCSNSGPKGYTCTCLPGYTGEHCEL
modifications: biotinylated (site not stated)
Turning to B1, the Kd (commonly the concentration at which binding is half-saturated) was determined as 1.63 nM.

B2: hDLL4(N-EGF5) (ligand)
chain: SGVFQLQLQEFINERGVLASGRPCEPGCRTFFRVCLKHFQAVVSPGPCTFGTVSTPVLGTNSFAVRDDSSGGGRNPLQLPFNFTWPGTFSLIIEAWHAPGDDLRPEALPPDALISKIAIQGSLAVGQNWLLDEQTSTLTRLRYSYRVICSDNYYGDNCSRLCKKRNDHFGHYVCQPDGNLSCLPGWTGEYCQQPICLSGCHEQNGYCSKPAECLCRPGWQGRLCNECIPHNGCRHGTCSTPWQCTCDEGWGGLFCDQDLNYCTHHSPCKNGATCSNSGQRSYTCTCRPGYTGVDCELELSECDSNPCRNGGSCKDQEDGYHCLCPPGYYGLHCEHSTLSCADSPCFNGGSCRERNQGANYACECPPNFTGSNCEK
modifications: biotinylated in the flow cytometry titration (site not stated); not stated for the plate-coated protein
Regarding B2, the Kd was found to be 1.43 nM.
